Assay results taken from patent US20200234789A1, “DESIGNED PROTEINS FOR LIGAND BINDING” (THE REGENTS OF THE UNIVERSITY OF CALIFORNIA, priority 2017, published 2020).

Columns and labels:
Assay type in all cases: physicochemical
[1] = Analytical ultracentrifugation (equilibrium sedimentation), oligomeric state; conditions: analytical ultracentrifugation and gel filtration
Text: FIG. 7A-7B. […] FIG. 7A: Analytical ultracentrifugation. Solutions of apo- and holo-PS1 were centrifuged at speeds ranging from 25,000 r.p.m. to 45,000 r.p.m. and monitored by absorbance at 280 nm. Parameters were globally fit to the data. Single-species fitting agrees well with the data over the entire range and yields the molecular weight of apo-PS1 […] and holo-PS1 12.24±0.91 kD, which agrees well with the 12.86 kD weight of PS1. […] Partial specific volumes were estimated from SEDNTERP^15 for amino acid side chains. FIG. 7B: Analytical gel filtration analysis of apo- and holo-PS1. Detection wavelengths are labeled as the same color as their respective curves. […] The small peak near 1.05 ml elution volume in holo-PS1 is unbound (excess), aggregated porphyrin eluting in the void volume of the superdex 75 5/150 column. Samples were run at concentrations of 100 μM and 37 μM for apo and holo, respectively, in 50 mM NaPi, 150 mM NaCl, pH 7.0 buffer.
The oligomeric state of apo- and holo-PS1 were determined by analytical equilibrium sedimentation performed at 25° C. using a Beckman XL-I analytical ultracentrifuge. Ultracentrifugation was conducted at speeds of 25K, 30K, 35K, 40K and 45K r.p.m., and the radial gradient profiles were obtained by absorbance at 280 nm. […]

[2] = Circular dichroism: temperature and GnHCl induced unfolding; conditions: at 95° C.; CD at 222 nm; 50 mM NaPi, 100 mM NaCl, pH 7.5
Method: (§1) FIGS. 3A-3D. Biophysical characterization of apo- and holo-PS1. FIG. 3A: Electronic absorption and emission spectra of (CF3)4PZn/PS1 holo-protein and (CF3)4PZn in toluene solvent. […] FIG. 3B: Determination of KD by apo-PS1 titration into a buffer solution (100 mM NaCl, 50 mM NaPi, pH 7.5) of (CF3)4PZn with 1% w/v octyl-b-D-glucopyranoside. […] FIG. 3C: Circular dichroism (CD) spectra of apo- and holo-PS1 in 50 mM NaPi, 100 mM NaCl, pH 7.5 as a function of temperature. The transitions appear reversible based on the fact that the spectra are identical after cooling to room temperature. Units are in molar residue ellipticity. […] FIG. 3D: Pump-probe transient absorption spectra of (CF3)4PZn bound in the interior of holo-PS1 at 21° C. and 100° C. […] Inset exemplifies identical transient dynamics (primarily intersystem crossing from S1 to T1) at ΔAbs.=482 nm (scaled). Experimental conditions: solvent=50 mM NaPi, 100 mM NaCl, pH 7.5; excitation wavelength=600±5 nm; magic-angle polarization between pump and probe pulses; pump-probe cross-correlation of ˜250 fs.
FIG. 8. Temperature and GnHCl induced unfolding of apo-PS1. CD spectra at 222 nm of apo-PS1 as a function of temperature and denaturant (Guanidine HCl, GnHCl) concentration in 50 mM NaPi, 100 mM NaCl, pH 7.5 buffer. The midpoint for GnHCl-induced unfolding at 95° C. was approximately 4.5 M. […]

[3] = Pump-probe transient absorption spectroscopy of bound (CF3)4PZn at 21 and 100° C.; conditions: non-natural porphyrin (CF3)4PZn
Method: as §1, with “Experimental conditions: solvent=50 mM NaPi, 100 mM NaCl, pH 7.5; excitation wavelength=600±5 nm; magic-angle polarization between pump and probe pulses; pump-probe cross-correlation of ˜250 fs.” left out
Ultrafast transient absorption spectra were obtained using standard pump-probe methods^9 with a time resolution of approximately 200 fs. Elevated temperature experiments were performed in a custom-made temperature block of anodized aluminum, the temperature of which was controlled by heating rods and monitored by a pair of thermocouples wired to a PID through a solid-state relay. […]

B1: PS1: de novo designed porphyrin-binding four-helix bundle protein; designed sequence SEQ ID NO:1, expressed His-tag-cleaved sequence SEQ ID NO:2 (protein)
chain: SEFEKLRQTGDELVQAFQRLREIFDKGDDDSLEQVLEEIEELIQKHRQLFDNRQEAADTEAAKQGDQWVQLFQRFREAIDKGDKDSLEQLLEELEQALQKIRELAEKKN
- oligomeric state in solution [1]: monomeric
- midpoint for GnHCl-induced unfolding [2]: approximately 4.5 M
- temperature up to which the porphyrin is bound [3]: up to 100 °C
